Target: E1/E2 complex (Bovine papillomavirus type 1) (UniProt P03116+P03122)
Experiment: footprint
Conditions: E1 plus 100 ng E2: equivalent protection of E1 site at 10-fold lower E1 than without E2

Chain of UniProt P03116 (P03116 whole entry, chain 1 of 2): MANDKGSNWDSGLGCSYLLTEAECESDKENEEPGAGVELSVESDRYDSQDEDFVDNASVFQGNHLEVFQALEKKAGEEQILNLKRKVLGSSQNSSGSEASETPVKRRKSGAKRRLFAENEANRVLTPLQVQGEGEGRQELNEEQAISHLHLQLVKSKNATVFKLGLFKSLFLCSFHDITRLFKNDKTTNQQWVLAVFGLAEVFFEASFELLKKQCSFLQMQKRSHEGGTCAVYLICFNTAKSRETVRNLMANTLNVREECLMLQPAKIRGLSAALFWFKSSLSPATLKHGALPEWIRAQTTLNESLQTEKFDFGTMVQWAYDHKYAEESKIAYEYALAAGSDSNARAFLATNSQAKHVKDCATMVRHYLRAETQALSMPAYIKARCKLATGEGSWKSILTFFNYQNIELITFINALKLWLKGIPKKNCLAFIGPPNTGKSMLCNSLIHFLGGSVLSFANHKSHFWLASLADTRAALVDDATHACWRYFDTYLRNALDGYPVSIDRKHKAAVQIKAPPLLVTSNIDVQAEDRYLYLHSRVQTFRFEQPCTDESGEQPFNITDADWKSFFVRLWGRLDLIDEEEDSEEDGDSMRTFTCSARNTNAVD
Chain of UniProt P03116 (P03122 whole entry, chain 2 of 2): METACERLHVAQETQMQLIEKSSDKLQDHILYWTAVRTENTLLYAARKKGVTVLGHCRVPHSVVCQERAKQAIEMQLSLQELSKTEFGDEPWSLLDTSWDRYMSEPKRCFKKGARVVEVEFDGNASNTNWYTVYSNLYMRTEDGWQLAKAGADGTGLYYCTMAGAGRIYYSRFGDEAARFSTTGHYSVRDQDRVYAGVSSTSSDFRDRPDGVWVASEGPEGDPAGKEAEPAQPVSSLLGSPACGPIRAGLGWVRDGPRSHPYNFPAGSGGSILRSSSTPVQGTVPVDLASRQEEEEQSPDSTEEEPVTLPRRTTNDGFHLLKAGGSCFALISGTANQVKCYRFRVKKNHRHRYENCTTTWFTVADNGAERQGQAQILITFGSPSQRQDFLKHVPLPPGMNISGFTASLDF

ACCGAAACCGGTAAGTAAAGACTATGTATTTTTTCCCAGTGAATANBBRBBRBBNNCNNBNNBCACACCATCACCGTT (double strand) [pKSO BPV origin fragment (7805-100)]
binding signal: 10 fold

Reference: US5620849
